T1: PYR1 (Arabidopsis thaliana, UniProt O49686)
T1 construct: expressed in transfected cells; host or cells: S. cerevisiae strain Y190
T1 sequence (O49686 1-191): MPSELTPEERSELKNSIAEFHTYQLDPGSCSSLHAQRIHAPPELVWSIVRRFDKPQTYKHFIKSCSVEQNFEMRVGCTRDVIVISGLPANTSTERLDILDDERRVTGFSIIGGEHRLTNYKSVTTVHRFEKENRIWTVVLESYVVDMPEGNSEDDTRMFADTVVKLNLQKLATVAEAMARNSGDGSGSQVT


What follows are molecules tested against T1, PYR1 (assay: Yeast two hybrid of pACT-HAB1 site saturation mutants with pBD-PYR1 on 10 μM ABA, β-galactosidase staining). Conditions: S. cerevisiae Y190, 10 μM ABA; dead = lack of detectable staining in comparison to wild type control.
Type: cell-based
Set-up: key: x: Mutations in HAB1 that disrupt HAB1 interaction with PYR1
How it was run: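 HAB1 (lacking three N-terminal residues) site-saturation mutants in pACT were co-transformed with pBD-PYR1 into S. cerevisiae Y190 and spotted on SD (-Leu,-Trp) with 10 μM ABA. After 2 days at 30 °C, chloroform-lysed colonies were stained for β-galactosidase; "dead" means no detectable staining versus wild-type pair.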

| Molecule | Mutations in HAB1 that disrupt HAB1 interaction with PYR1 |
| --- | --- |
| G392L: HAB1 mutant (protein, UniProt Q9CAJ0 23-511, looked up, variant G392L) Protein phosphatase 2C 16: SPVEITQLKNVTDAADLLSDSENQSFCNGGTECTMEDVSELEEVGEQDLLKTLSDTRSGSSNVFDEDDVLSVVEDNSAVISEGLLVVDAGSELSLSNTAMEIDNGRVLATAIIVGESSIEQVPTAEVLIAGVNQDTNTSEVVIRLPDENSNHLVKGRSVYELDCIPLWGTVSIQGNRSEMEDAFAVSPHFLKLPIKMLMGDHEGMSPSLTHLTGHFFGVYDGHGGHKVADYCRDRLHFALAEEIERIKDELCKRNTGEGRQVQWDKVFTSCFLTVDGEIEGKIGRAVVGSSDKVLEAVASETVGSTAVVALVCSSHIVVSNCGDSRAVLFRGKEAMPLSVDHKPDREDEYARIENAGGKVIQWQGARVFLVLAMSRSIGDRYLKPYVIPEPEVTFMPRSREDECLILASDGLWDVMNNQEVCEIARRRILMWHKKNGAPPLAERGKGIDPACQAAADYLSMLALQKGSKDNISIIVIDLKAQRKFKTRT | x |
| G392N: HAB1 mutant (protein, UniProt Q9CAJ0 23-511, looked up, variant G392N) Protein phosphatase 2C 16: SPVEITQLKNVTDAADLLSDSENQSFCNGGTECTMEDVSELEEVGEQDLLKTLSDTRSGSSNVFDEDDVLSVVEDNSAVISEGLLVVDAGSELSLSNTAMEIDNGRVLATAIIVGESSIEQVPTAEVLIAGVNQDTNTSEVVIRLPDENSNHLVKGRSVYELDCIPLWGTVSIQGNRSEMEDAFAVSPHFLKLPIKMLMGDHEGMSPSLTHLTGHFFGVYDGHGGHKVADYCRDRLHFALAEEIERIKDELCKRNTGEGRQVQWDKVFTSCFLTVDGEIEGKIGRAVVGSSDKVLEAVASETVGSTAVVALVCSSHIVVSNCGDSRAVLFRGKEAMPLSVDHKPDREDEYARIENAGGKVIQWQGARVFNVLAMSRSIGDRYLKPYVIPEPEVTFMPRSREDECLILASDGLWDVMNNQEVCEIARRRILMWHKKNGAPPLAERGKGIDPACQAAADYLSMLALQKGSKDNISIIVIDLKAQRKFKTRT | x |
| G392P: HAB1 mutant (protein, UniProt Q9CAJ0 23-511, looked up, variant G392P) Protein phosphatase 2C 16: SPVEITQLKNVTDAADLLSDSENQSFCNGGTECTMEDVSELEEVGEQDLLKTLSDTRSGSSNVFDEDDVLSVVEDNSAVISEGLLVVDAGSELSLSNTAMEIDNGRVLATAIIVGESSIEQVPTAEVLIAGVNQDTNTSEVVIRLPDENSNHLVKGRSVYELDCIPLWGTVSIQGNRSEMEDAFAVSPHFLKLPIKMLMGDHEGMSPSLTHLTGHFFGVYDGHGGHKVADYCRDRLHFALAEEIERIKDELCKRNTGEGRQVQWDKVFTSCFLTVDGEIEGKIGRAVVGSSDKVLEAVASETVGSTAVVALVCSSHIVVSNCGDSRAVLFRGKEAMPLSVDHKPDREDEYARIENAGGKVIQWQGARVFPVLAMSRSIGDRYLKPYVIPEPEVTFMPRSREDECLILASDGLWDVMNNQEVCEIARRRILMWHKKNGAPPLAERGKGIDPACQAAADYLSMLALQKGSKDNISIIVIDLKAQRKFKTRT | x |
| G392M: HAB1 mutant (protein, UniProt Q9CAJ0 23-511, looked up, variant G392M) Protein phosphatase 2C 16: SPVEITQLKNVTDAADLLSDSENQSFCNGGTECTMEDVSELEEVGEQDLLKTLSDTRSGSSNVFDEDDVLSVVEDNSAVISEGLLVVDAGSELSLSNTAMEIDNGRVLATAIIVGESSIEQVPTAEVLIAGVNQDTNTSEVVIRLPDENSNHLVKGRSVYELDCIPLWGTVSIQGNRSEMEDAFAVSPHFLKLPIKMLMGDHEGMSPSLTHLTGHFFGVYDGHGGHKVADYCRDRLHFALAEEIERIKDELCKRNTGEGRQVQWDKVFTSCFLTVDGEIEGKIGRAVVGSSDKVLEAVASETVGSTAVVALVCSSHIVVSNCGDSRAVLFRGKEAMPLSVDHKPDREDEYARIENAGGKVIQWQGARVFMVLAMSRSIGDRYLKPYVIPEPEVTFMPRSREDECLILASDGLWDVMNNQEVCEIARRRILMWHKKNGAPPLAERGKGIDPACQAAADYLSMLALQKGSKDNISIIVIDLKAQRKFKTRT | x |
| G392C: HAB1 mutant (protein, UniProt Q9CAJ0 23-511, looked up, variant G392C) Protein phosphatase 2C 16: SPVEITQLKNVTDAADLLSDSENQSFCNGGTECTMEDVSELEEVGEQDLLKTLSDTRSGSSNVFDEDDVLSVVEDNSAVISEGLLVVDAGSELSLSNTAMEIDNGRVLATAIIVGESSIEQVPTAEVLIAGVNQDTNTSEVVIRLPDENSNHLVKGRSVYELDCIPLWGTVSIQGNRSEMEDAFAVSPHFLKLPIKMLMGDHEGMSPSLTHLTGHFFGVYDGHGGHKVADYCRDRLHFALAEEIERIKDELCKRNTGEGRQVQWDKVFTSCFLTVDGEIEGKIGRAVVGSSDKVLEAVASETVGSTAVVALVCSSHIVVSNCGDSRAVLFRGKEAMPLSVDHKPDREDEYARIENAGGKVIQWQGARVFCVLAMSRSIGDRYLKPYVIPEPEVTFMPRSREDECLILASDGLWDVMNNQEVCEIARRRILMWHKKNGAPPLAERGKGIDPACQAAADYLSMLALQKGSKDNISIIVIDLKAQRKFKTRT | x |

Further lines, results first:

| Mutations in HAB1 that disrupt HAB1 interaction with PYR1 | Molecule |
| --- | --- |
| x | G392W: HAB1 mutant (protein, UniProt Q9CAJ0 23-511, looked up, variant G392W) Protein phosphatase 2C 16: SPVEITQLKNVTDAADLLSDSENQSFCNGGTECTMEDVSELEEVGEQDLLKTLSDTRSGSSNVFDEDDVLSVVEDNSAVISEGLLVVDAGSELSLSNTAMEIDNGRVLATAIIVGESSIEQVPTAEVLIAGVNQDTNTSEVVIRLPDENSNHLVKGRSVYELDCIPLWGTVSIQGNRSEMEDAFAVSPHFLKLPIKMLMGDHEGMSPSLTHLTGHFFGVYDGHGGHKVADYCRDRLHFALAEEIERIKDELCKRNTGEGRQVQWDKVFTSCFLTVDGEIEGKIGRAVVGSSDKVLEAVASETVGSTAVVALVCSSHIVVSNCGDSRAVLFRGKEAMPLSVDHKPDREDEYARIENAGGKVIQWQGARVFWVLAMSRSIGDRYLKPYVIPEPEVTFMPRSREDECLILASDGLWDVMNNQEVCEIARRRILMWHKKNGAPPLAERGKGIDPACQAAADYLSMLALQKGSKDNISIIVIDLKAQRKFKTRT |
| x | G392R: HAB1 mutant (protein, UniProt Q9CAJ0 23-511, looked up, variant G392R) Protein phosphatase 2C 16: SPVEITQLKNVTDAADLLSDSENQSFCNGGTECTMEDVSELEEVGEQDLLKTLSDTRSGSSNVFDEDDVLSVVEDNSAVISEGLLVVDAGSELSLSNTAMEIDNGRVLATAIIVGESSIEQVPTAEVLIAGVNQDTNTSEVVIRLPDENSNHLVKGRSVYELDCIPLWGTVSIQGNRSEMEDAFAVSPHFLKLPIKMLMGDHEGMSPSLTHLTGHFFGVYDGHGGHKVADYCRDRLHFALAEEIERIKDELCKRNTGEGRQVQWDKVFTSCFLTVDGEIEGKIGRAVVGSSDKVLEAVASETVGSTAVVALVCSSHIVVSNCGDSRAVLFRGKEAMPLSVDHKPDREDEYARIENAGGKVIQWQGARVFRVLAMSRSIGDRYLKPYVIPEPEVTFMPRSREDECLILASDGLWDVMNNQEVCEIARRRILMWHKKNGAPPLAERGKGIDPACQAAADYLSMLALQKGSKDNISIIVIDLKAQRKFKTRT |
| x | G392T: HAB1 mutant (protein, UniProt Q9CAJ0 23-511, looked up, variant G392T) Protein phosphatase 2C 16: SPVEITQLKNVTDAADLLSDSENQSFCNGGTECTMEDVSELEEVGEQDLLKTLSDTRSGSSNVFDEDDVLSVVEDNSAVISEGLLVVDAGSELSLSNTAMEIDNGRVLATAIIVGESSIEQVPTAEVLIAGVNQDTNTSEVVIRLPDENSNHLVKGRSVYELDCIPLWGTVSIQGNRSEMEDAFAVSPHFLKLPIKMLMGDHEGMSPSLTHLTGHFFGVYDGHGGHKVADYCRDRLHFALAEEIERIKDELCKRNTGEGRQVQWDKVFTSCFLTVDGEIEGKIGRAVVGSSDKVLEAVASETVGSTAVVALVCSSHIVVSNCGDSRAVLFRGKEAMPLSVDHKPDREDEYARIENAGGKVIQWQGARVFTVLAMSRSIGDRYLKPYVIPEPEVTFMPRSREDECLILASDGLWDVMNNQEVCEIARRRILMWHKKNGAPPLAERGKGIDPACQAAADYLSMLALQKGSKDNISIIVIDLKAQRKFKTRT |
| x | G392Q: HAB1 mutant (protein, UniProt Q9CAJ0 23-511, looked up, variant G392Q) Protein phosphatase 2C 16: SPVEITQLKNVTDAADLLSDSENQSFCNGGTECTMEDVSELEEVGEQDLLKTLSDTRSGSSNVFDEDDVLSVVEDNSAVISEGLLVVDAGSELSLSNTAMEIDNGRVLATAIIVGESSIEQVPTAEVLIAGVNQDTNTSEVVIRLPDENSNHLVKGRSVYELDCIPLWGTVSIQGNRSEMEDAFAVSPHFLKLPIKMLMGDHEGMSPSLTHLTGHFFGVYDGHGGHKVADYCRDRLHFALAEEIERIKDELCKRNTGEGRQVQWDKVFTSCFLTVDGEIEGKIGRAVVGSSDKVLEAVASETVGSTAVVALVCSSHIVVSNCGDSRAVLFRGKEAMPLSVDHKPDREDEYARIENAGGKVIQWQGARVFQVLAMSRSIGDRYLKPYVIPEPEVTFMPRSREDECLILASDGLWDVMNNQEVCEIARRRILMWHKKNGAPPLAERGKGIDPACQAAADYLSMLALQKGSKDNISIIVIDLKAQRKFKTRT |
| x | G392V: HAB1 mutant (protein, UniProt Q9CAJ0 23-511, looked up, variant G392V) Protein phosphatase 2C 16: SPVEITQLKNVTDAADLLSDSENQSFCNGGTECTMEDVSELEEVGEQDLLKTLSDTRSGSSNVFDEDDVLSVVEDNSAVISEGLLVVDAGSELSLSNTAMEIDNGRVLATAIIVGESSIEQVPTAEVLIAGVNQDTNTSEVVIRLPDENSNHLVKGRSVYELDCIPLWGTVSIQGNRSEMEDAFAVSPHFLKLPIKMLMGDHEGMSPSLTHLTGHFFGVYDGHGGHKVADYCRDRLHFALAEEIERIKDELCKRNTGEGRQVQWDKVFTSCFLTVDGEIEGKIGRAVVGSSDKVLEAVASETVGSTAVVALVCSSHIVVSNCGDSRAVLFRGKEAMPLSVDHKPDREDEYARIENAGGKVIQWQGARVFVVLAMSRSIGDRYLKPYVIPEPEVTFMPRSREDECLILASDGLWDVMNNQEVCEIARRRILMWHKKNGAPPLAERGKGIDPACQAAADYLSMLALQKGSKDNISIIVIDLKAQRKFKTRT |

From patent publication US10919943B2, “Mutant proteins enabling agrochemical control of plant gene expression” (The Regents of the University of California, priority 2016, dated 2021)
